The text below walks through data of patent US20060141582A1 (ZymoGenetics, published 2006).

Assay [1] deals with CRF2-4/IL-22RA heterodimeric receptor on BaF3 cells (BaF3/CRF2-4/IL-22RA cells) (human) (UniProt Q08334). The assay is described as follows: cell-based or functional assay.
For assay [2], the target named is T1, human IL-22RA on transfected cells (BaF3/IL-22RA/IL-20RB, BaF3/IL-22RA/CRF2-4, 293 or P815 cells) (human, UniProt Q8N6P7 16-574).
T1 construct: also called huIL-22RA; hIL-22RA
T1 sequence: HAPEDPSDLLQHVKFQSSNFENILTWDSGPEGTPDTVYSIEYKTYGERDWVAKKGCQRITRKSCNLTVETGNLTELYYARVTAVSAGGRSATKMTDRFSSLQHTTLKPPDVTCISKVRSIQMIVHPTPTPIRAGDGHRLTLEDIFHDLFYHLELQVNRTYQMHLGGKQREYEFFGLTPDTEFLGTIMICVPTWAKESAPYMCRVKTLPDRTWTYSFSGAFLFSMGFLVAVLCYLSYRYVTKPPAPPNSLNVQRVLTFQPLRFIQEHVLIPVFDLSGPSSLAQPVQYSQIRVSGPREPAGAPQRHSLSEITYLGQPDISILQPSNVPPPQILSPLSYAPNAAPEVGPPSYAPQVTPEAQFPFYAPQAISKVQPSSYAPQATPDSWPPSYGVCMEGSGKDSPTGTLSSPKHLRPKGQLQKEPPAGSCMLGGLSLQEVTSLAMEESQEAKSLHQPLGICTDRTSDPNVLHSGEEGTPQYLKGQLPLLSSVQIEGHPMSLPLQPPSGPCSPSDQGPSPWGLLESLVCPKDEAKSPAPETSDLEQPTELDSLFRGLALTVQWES
Description: flow cytometry on P815 cells transfected with hIL-22RA, 5 ug/ml huIL-22-biotin; used to select the clone. The method, then: WT P815 Cells (ATCC No. TIB-64) were transfected with a plasmid vector containing the hIL-22RA cDNA sequence (e.g., SEQ ID NO:1) and a selectable puromycin-resistance marker, using Fugene Reagent according to the manufacturer's protocol (Roche, Indianapolis, Ind.). Cells were placed under Puromycin selection 48 hours following transfection. Puromycin-resistant transfectants were cloned by limiting dilution, and screened for their level of hIL-22RA cell surface expression by flow cytometry, using biotinylated human IL-22 (huIL-22-biotin). Briefly, cells were incubated with 5 ug/ml huIL-22-biotin for 30 minutes on ice and then washed. Binding of huIL-22-biotin to the cells was then detected using PE-labeled streptavidin at 1:500. Cells were analyzed on a Facscan flow cytometer using Cellquest software. (Becton Dickinson, San Jose, Calif.).
Background: A flow cytometer gives signals particle by particle.

Sequence of CRF2-4/IL-22RA heterodimeric receptor on BaF3 cells (BaF3/CRF2-4/IL-22RA cells) (human) (Q08334 20-325 limits assumed, one chain of several): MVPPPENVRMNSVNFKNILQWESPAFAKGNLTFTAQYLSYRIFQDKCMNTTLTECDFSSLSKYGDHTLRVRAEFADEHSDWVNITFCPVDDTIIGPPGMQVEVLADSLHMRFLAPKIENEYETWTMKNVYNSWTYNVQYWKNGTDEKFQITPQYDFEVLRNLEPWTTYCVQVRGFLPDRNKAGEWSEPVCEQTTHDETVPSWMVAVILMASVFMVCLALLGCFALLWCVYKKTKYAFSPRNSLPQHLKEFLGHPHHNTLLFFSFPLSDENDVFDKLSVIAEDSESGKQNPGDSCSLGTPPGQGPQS

“IL-22-CEE (IL-22 polypeptide containing C-terminal GluGlu (EE) tag), purified from BHK 570 cells (ligand)”: in assay [1], the proliferation of BaF3/CRF2-4/IL-22RA cells (Alamar Blue), fold induction at 0.06 ng/ml IL-22-CEE (fold induction) came to 2 and the proliferation of BaF3/CRF2-4/IL-22RA cells (Alamar Blue), fold over background at 50 ng/ml IL-22-CEE (fold over background) worked out at 15.

B1: biotinylated human IL-22 (ligand)
chain: APISSHCRLDKSNFQQPYITNRTFMLAKEASLADNNTDVRLIGEKLFHGVSMSERCYLMKQVLNFTLEEVLFPQSDRFQPYMQEVVPFLARLSNRLSTCHIEGDDLHIQRNVQKLKDTVKKLGESGEIKAIGELDLLFMSLRNACI
modifications: biotinylated (sites not given)
notes: also called huIL-22-biotin
For the molecule B1, in assay [2], the binding result is reported as “binds”.
